To fix the notation:
B1: C1orf137 (parent)
chain: RQHHHQSSFPGSLPQETNLTLKVC
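Also: lentivirally expressed fusions sorted by FACS into six bins by GFP to DsRed ratio, PSI derived from sequencing read proportions per bin multiplied by bin number.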

The variants in the series derive from B1. As to the kind of experiment: protein stability index of a GFP-peptide fusion (GPS, HEK-293T) (PSI 1-6); higher = more stable. Conditions: c terminus: a fixed tail appended.
For the variant RQHHHQSSFPGSLPQETNLTLRVC [K22R], the protein stability index worked out at 2.28.

Turning to RQHHHQSSFPGSLPQETNLTLMVC [K22M], the protein stability index amounted to 2.28.

On to RQHHHQSSFPGSLPQETNLTLCVC [K22C], for which the protein stability index came out at 1.75.

For the variant RQHHHQSSFPGSLPQETNLTLIVC [K22I], the protein stability index is 2.49.

Regarding RQHHHQSSFPGSLPQETNLTLGVC [K22G], the protein stability index was found to be 3.42.

For RQHHHQSSFPGSLPQETNLTLHVC [K22H], the protein stability index worked out at 2.75.

For the variant RQHHHQQSFPGSLPQETNLTLKVC [S7Q], the protein stability index was 3.05.

For RQHHHQHSFPGSLPQETNLTLKVC [S7H], the protein stability index amounted to 2.83.

For the variant RQHHHQWSFPGSLPQETNLTLKVC [S7W], the protein stability index was determined as 2.43.

In the case of RQHHHQSSFPGSLPQETNLTLKMC [V23M], the protein stability index stood at 3.33.

Regarding RQHHHQSSFPGSLPQETNLTLKPC [V23P], the protein stability index was 3.79.

As for RQHHHQSSFPGSLPQETNLTLKQC [V23Q], the protein stability index amounted to 4.5.

In the case of RQHHHQSSFPGSLPQETNLTLKCC [V23C], the protein stability index is 3.41.

As for RQHHHQSSFPGSLPQETNLNLKVC [T20N], the protein stability index came to 3.16.

As for RQHHHQSSFPGSLPQETNLALKVC [T20A], the protein stability index is 3.

As for RQHHHQSSFPGSLPQETNLVLKVC [T20V], the protein stability index amounted to 2.42.

Take RQHHHQSSFPGSLPQETNLWLKVC [T20W]: the protein stability index was found to be 2.18.

Take RQHHHQSSFPGSLPQETNLCLKVC [T20C]: the protein stability index is 2.8.

Regarding RQTHHQSSFPGSLPQETNLTLKVC [H3T], the protein stability index turned out to be 3.13.

On to RQQHHQSSFPGSLPQETNLTLKVC [H3Q], for which the protein stability index amounted to 3.06.

Consider RQMHHQSSFPGSLPQETNLTLKVC [H3M], for which the protein stability index came to 3.25.

For the variant RQHHHQSSFPGSLPQETHLTLKVC [N18H], the protein stability index was determined as 1.84.

For the variant RQHHHQSSFPGSLPQETILTLKVC [N18I], the protein stability index came out at 2.

For RQHHHQSSFPGSLPQETYLTLKVC [N18Y], the protein stability index stood at 2.08.

On to RQHHHQSSFPGSLPQETALTLKVC [N18A], for which the protein stability index was 2.76.

Consider RQHHHQSSMPGSLPQETNLTLKVC [F9M], for which the protein stability index came out at 3.18.

For the variant RQHHHQSSWPGSLPQETNLTLKVC [F9W], the protein stability index came to 3.27.

As to RQHHHQSSAPGSLPQETNLTLKVC [F9A], the protein stability index is 3.97.

Turning to RQHHHQSSRPGSLPQETNLTLKVC [F9R], the protein stability index was 3.7.

On to RQHHHQSSKPGSLPQETNLTLKVC [F9K], for which the protein stability index is 4.33.

Turning to RQHHHQSSTPGSLPQETNLTLKVC [F9T], the protein stability index was found to be 3.42.

Regarding RQHHHQSSFPGSLPQEHNLTLKVC [T17H], the protein stability index worked out at 2.39.

As for RQHHHQSSFPGSLPQEYNLTLKVC [T17Y], the protein stability index was found to be 2.09.

With RQHHHQSSFPGSLPQEVNLTLKVC [T17V], the protein stability index was determined as 2.17.

In the case of RQHHHQSSFPGSLPQESNLTLKVC [T17S], the protein stability index came out at 3.02.

On to RQHHHQSSFPGSLPQECNLTLKVC [T17C], for which the protein stability index was found to be 2.46.

For RQHHHQSSFPGSLPQEGNLTLKVC [T17G], the protein stability index was determined as 3.28.

Consider RQHHHQSSFPGSLPQEPNLTLKVC [T17P], for which the protein stability index is 2.98.

As to RQHHHCSSFPGSLPQETNLTLKVC [Q6C], the protein stability index stood at 1.72.

RQHHHWSSFPGSLPQETNLTLKVC [Q6W]: the protein stability index is 2.27.

RQHHHESSFPGSLPQETNLTLKVC [Q6E]: the protein stability index stood at 2.88.

For the variant RQHHHQSSFIGSLPQETNLTLKVC [P10I], the protein stability index was 2.56.

For RQHHHQSSFSGSLPQETNLTLKVC [P10S], the protein stability index is 3.46.

As to RQHHHQSSFYGSLPQETNLTLKVC [P10Y], the protein stability index was determined as 2.4.

For the variant RQHHHQSSFNGSLPQETNLTLKVC [P10N], the protein stability index turned out to be 2.69.

Regarding RQHHHQSSFRGSLPQETNLTLKVC [P10R], the protein stability index was determined as 3.75.

Turning to RQHHHQSSFDGSLPQETNLTLKVC [P10D], the protein stability index was found to be 2.99.

For the variant RQHHHQSSFPGSLPEETNLTLKVC [Q15E], the protein stability index was determined as 3.65.

On to RQHHHQSSFPGSLPYETNLTLKVC [Q15Y], for which the protein stability index is 2.28.

RQHHHQSSFPGSLPGETNLTLKVC [Q15G]: the protein stability index came to 2.19.

As to RQHHHQSSFPGSLPQETNLTLKVD [C24D], the protein stability index is 4.36.

With RQHHHQSSFPGSLPQETNLTLKVW [C24W], the protein stability index was determined as 2.9.

As for RQHHHQSSFPGSLPQCTNLTLKVC [E16C], the protein stability index stood at 1.47.

As to RQHHHQSSFPGSLPQATNLTLKVC [E16A], the protein stability index was determined as 2.33.

For the variant RQHHHQSSFPGSLPQKTNLTLKVC [E16K], the protein stability index was determined as 2.57.

Consider RQHHHQSSFPGSLPQETNLTNKVC [L21N], for which the protein stability index worked out at 4.32.

Consider RQHHHQSSFPGSLPQETNLTHKVC [L21H], for which the protein stability index stood at 3.76.

RQHHHQSSFPGSLAQETNLTLKVC [P14A]: the protein stability index turned out to be 3.15.

For RQHHHQSSFPGSLQQETNLTLKVC [P14Q], the protein stability index worked out at 3.44.

On to RQHHHQSSFPGSVPQETNLTLKVC [L13V], for which the protein stability index worked out at 3.65.

For RQHHHQSSFPGSNPQETNLTLKVC [L13N], the protein stability index is 3.71.

In the case of RVHHHQSSFPGSLPQETNLTLKVC [Q2V], the protein stability index was 2.47.

As for RHHHHQSSFPGSLPQETNLTLKVC [Q2H], the protein stability index was found to be 2.27.

Turning to REHHHQSSFPGSLPQETNLTLKVC [Q2E], the protein stability index was 2.59.

As for RAHHHQSSFPGSLPQETNLTLKVC [Q2A], the protein stability index is 2.67.

On to RQHHHQSSFPGSLPQETNNTLKVC [L19N], for which the protein stability index was determined as 3.49.

On to RQHHHQSSFPGSLPQETNITLKVC [L19I], for which the protein stability index was 3.39.

As to RQHHHQSSFPGSLPQETNSTLKVC [L19S], the protein stability index was found to be 3.55.

Consider RQHHHQSSFPGSLPQETNTTLKVC [L19T], for which the protein stability index came out at 3.96.

RQHHHQSSFPGSLPQETNFTLKVC [L19F]: the protein stability index is 2.47.

Regarding RQHHHQSSFPHSLPQETNLTLKVC [G11H], the protein stability index is 2.98.

As to RQHHHQSSFPYSLPQETNLTLKVC [G11Y], the protein stability index was 1.95.

For the variant RQHHHQSSFPRSLPQETNLTLKVC [G11R], the protein stability index was found to be 2.44.

As for RQHHHQSSFPLSLPQETNLTLKVC [G11L], the protein stability index came to 2.72.

Turning to RQHHHQSTFPGSLPQETNLTLKVC [S8T], the protein stability index is 2.71.

Turning to RQHHHQSRFPGSLPQETNLTLKVC [S8R], the protein stability index is 2.57.

For the variant RQHHHQSVFPGSLPQETNLTLKVC [S8V], the protein stability index was found to be 2.78.

For RQHHHQSKFPGSLPQETNLTLKVC [S8K], the protein stability index was found to be 3.07.

Regarding RQHHHQSYFPGSLPQETNLTLKVC [S8Y], the protein stability index is 2.02.

Take QQHHHQSSFPGSLPQETNLTLKVC [R1Q]: the protein stability index stood at 3.44.

TQHHHQSSFPGSLPQETNLTLKVC [R1T]: the protein stability index came out at 3.12.

For DQHHHQSSFPGSLPQETNLTLKVC [R1D], the protein stability index was 3.79.

Turning to AQHHHQSSFPGSLPQETNLTLKVC [R1A], the protein stability index came to 2.7.

As to RQHYHQSSFPGSLPQETNLTLKVC [H4Y], the protein stability index stood at 2.89.

Consider RQHPHQSSFPGSLPQETNLTLKVC [H4P], for which the protein stability index was determined as 3.19.

Turning to RQHGHQSSFPGSLPQETNLTLKVC [H4G], the protein stability index was found to be 3.52.

As to RQHTHQSSFPGSLPQETNLTLKVC [H4T], the protein stability index came to 3.36.

Regarding RQHHPQSSFPGSLPQETNLTLKVC [H5P], the protein stability index is 2.9.

RQHHSQSSFPGSLPQETNLTLKVC [H5S]: the protein stability index is 2.51.

Turning to RQHHDQSSFPGSLPQETNLTLKVC [H5D], the protein stability index turned out to be 3.36.

For the variant RQHHCQSSFPGSLPQETNLTLKVC [H5C], the protein stability index was 3.25.

Turning to RQHHHQSSFPGNLPQETNLTLKVC [S12N], the protein stability index amounted to 2.99.

With RQHHHQSSFPGVLPQETNLTLKVC [S12V], the protein stability index came to 3.38.

Take RQHHHQSSFPGRLPQETNLTLKVC [S12R]: the protein stability index was found to be 3.17.

These data come from the supplement of paper PMC10567573.
